# Test results reported in the RNAGym collection of RNA variant scans (doi:10.7554/elife.80360).
# B1: CPEB3 Ribozyme (parent)
# chain: GGGGGCCACAGCAGAAGCGUUCACGUCGCGGCCCCUGUCAGAUUCUGGUGAAUCUGCGAAUUCUGCUGU
# Variants of: B1
# Test: self-cleavage, relative activity (ratio to wild type); higher = more cleavage; co-transcriptional
row,Variant,self-cleavage
1,GGGGGCCACAGCAGAAGCGUUCACGUCGAGGCCCCUGUAAGAUUCUGGUGAAUCUGCGAAUUCUGCUGU [C29A C39A],0.327
2,GGGGGCCACAGCAGAAGCGUUCACGUCGGGGCCCCUGUCAGAUUCUGGUGACUCUGCGAAUUCUGCUGU [C29G A52C],0.467
3,GGGGGCCACAGCAGAAGCGUUCACGUCUCGGCCCCUGUCAGAUUCUGGUGAACCUGCGAAUUCUGCUGU [G28U U53C],0.157
4,GGGGGCCACAGCAGAAGCGUUCACGUCGAGGCCCCUGUCAGAUUCUGGUGAAUCUGCCAAUUCUGCUGU [C29A G58C],0.685
5,GGGGGCCACAGCAGAAGCGUUCACGUCGAGGCCCCUGUCAGAUUCUGGUGAAUCUGCUAAUUCUGCUGU [C29A G58U],0.795
6,GGGGGCCACAGCAGAAGCGUUCACGUCGGGGCCCCUGUCAGAUUUUGGUGAAUCUGCGAAUUCUGCUGU [C29G C45U],0.601
7,GGGGGCCACAGCAGAAGCGUUCACGUCGAGGCCCCUGUCAGAUUCUGGUGAAUCUGCGAAGUCUGCUGU [C29A U61G],0.613
8,GGGGGCCACAGCAGAAGCGUUCACGUCGAGGCCCCUGUCAGAUUCUGGUGAAUCUGCGAACUCUGCUGU [C29A U61C],0.374
9,GGGGGCCACAGCAGAAGCGUUCACGUCGAGGCCCCUGUCAGAUUCUAGUGAAUCUGCGAAUUCUGCUGU [C29A G47A],0.796
10,GGGGGCCACAGCAGAAGCGUUCACGUCGAGGCCCCUGUCAGAUUCUGGUGAAUCUGCGAAUUCUGAUGU [C29A C66A],0.334
11,GGGGGCCACAGCAGAAGCGUUCACGUCGAGGCCCCUGUCAGAUUCCGGUGAAUCUGCGAAUUCUGCUGU [C29A U46C],0.68
12,GGGGGCCACAGCAGAAGCGUUCACGUCGAGGCCCCUGUCAGAUUCAGGUGAAUCUGCGAAUUCUGCUGU [C29A U46A],0.845
13,GGGGGCCACAGCAGAAGCGUUCACGUCGGGGCUCCUGUCAGAUUCUGGUGAAUCUGCGAAUUCUGCUGU [C29G C33U],0.558
14,GGGGGCCACAGCAGAAGCGUUCACGUCGAGGCCCCUGUCAGAUUCUGGUGAAUCGGCGAAUUCUGCUGU [C29A U55G],0.323
15,GGGGGCCACAGCAGAAGCGUUCACGUCUCGGCCCCUGUCAGAUUCUGGUGAAUCUGCGAAUUCUGCUGC [G28U U69C],0.235
16,GGGGGCCACAGCAGAAGCGUUCACGUCUCGGCCCCUGUCAGAUUCUGGUGAAUCUGCGAAUUCUGCUGA [G28U U69A],0.183
17,GGGGGCCACAGCAGAAGCGUUCACGUCUCGGCCCCUGUCAGAUUCUGGUGAAUCUGCGAAUUCUACUGU [G28U G65A],0.146
18,GGGGGCCACAGCAGAAGCGUUCACGUCUCGGCCCCUGUCAGAUUCUGGUGAAUCUGCGAAUUCUUCUGU [G28U G65U],0.2
19,GGGGGCCACAGCAGAAGCGUUCACGUCGAGGCCCCUGUCAGAUUCUGGUGAAUCUGCGAAUUCUGCUGG [C29A U69G],0.864
20,GGGGGCCACAGCAGAAGCGUUCACGUCGAGGCCCCUGUCAGAUUCUGGUGAAUCUGCGAAUUCUGCUGA [C29A U69A],0.91
21,GGGGGCCACAGCAGAAGCGUUCACGUCGAGGCCCCUGUCAGAUUCUGGUGAAUCUGCGAAUUUUGCUGU [C29A C63U],0.465
22,GGGGGCCACAGCAGAAGCGUUCACGUCGAGGCCCCUGUCAGAUUCUGGUGAAUCUGCGAGUUCUGCUGU [C29A A60G],0.334
23,GGGGGCCACAGCAGAAGCGUUCACGUCGAGGCCCCUGUCAGAUUCUGGUGAAUCUGCGACUUCUGCUGU [C29A A60C],0.307
24,GGGGGCCACAGCAGAAGCGUUCACGUCUCGGCCCCUGUCAGAUUCUGGUGAAUCUGCGAAUUCUGCUAU [G28U G68A],0.195
25,GGGGGCCACAGCAGAAGCGUUCACGUCUCGGCCCCUGUCAGAUUCUGGUGAAUCUGCGAAUUCUGCUUU [G28U G68U],0.208
26,GGGGGCCACAGCAGAAGCGUUCACGUCGAGGCCCCUGUCAGAUUAUGGUGAAUCUGCGAAUUCUGCUGU [C29A C45A],0.635

row,Variant,self-cleavage
1,GGGGGCCACAGCAGAAGCGUUCACGUCGAGGCCCCUGUCAGAUUGUGGUGAAUCUGCGAAUUCUGCUGU [C29A C45G],0.605
2,GGGGGCCACAGCAGAAGCGUUCACGUCGGGGCCUCUGUCAGAUUCUGGUGAAUCUGCGAAUUCUGCUGU [C29G C34U],0.495
3,GGGGGCCACAGCAGAAGCGUUCACGUCGGGGCCACUGUCAGAUUCUGGUGAAUCUGCGAAUUCUGCUGU [C29G C34A],0.227
4,GGGGGCCACAGCAGAAGCGUUCACGUCGAGGCCCCUGUCAGAUUCUGGUGAAUCUGCGUAUUCUGCUGU [C29A A59U],0.283
5,GGGGGCCACAGCAGAAGCGUUCACGUCGAGGCCCCUGUCAGAUUCUGGUGAAUCUGCGCAUUCUGCUGU [C29A A59C],0.274
6,GGGGGCCACAGCAGAAGCGUUCACGUCGGGGCCCCUGUCAGAUUCUGGUGAAUCUGCGGAUUCUGCUGU [C29G A59G],0.675
7,GGGGGCCACAGCAGAAGCGUUCACGUCGAGGCCCCUGUCAGAUUCUGGUGAAUCUGUGAAUUCUGCUGU [C29A C57U],0.247
8,GGGGGCCACAGCAGAAGCGUUCACGUCUCGGCCCCUGUCAGAUCCUGGUGAAUCUGCGAAUUCUGCUGU [G28U U44C],0.181
9,GGGGGCCACAGCAGAAGCGUUCACGUCUCGGCCCCUGUCAGAUACUGGUGAAUCUGCGAAUUCUGCUGU [G28U U44A],0.135
10,GGGGGCCACAGCAGAAGCGUUCACGUCUCGGCCCCUGUCAGAUUCUGGUGAAUCUGCUAAUUCUGCUGU [G28U G58U],0.182
11,GGGGGCCACAGCAGAAGCGUUCACGUCGGGGUCCCUGUCAGAUUCUGGUGAAUCUGCGAAUUCUGCUGU [C29G C32U],0.313
12,GGGGGCCACAGCAGAAGCGUUCACGUCGAGGCCCCUGUCAGAUUCUGGUGAAUUUGCGAAUUCUGCUGU [C29A C54U],0.682
13,GGGGGCCACAGCAGAAGCGUUCACGUCGAGGCCCCUGUCAGAUUCUGGUGAAUGUGCGAAUUCUGCUGU [C29A C54G],0.299
14,GGGGGCCACAGCAGAAGCGUUCACGUCGAGGCCCCUGUCAGACUCUGGUGAAUCUGCGAAUUCUGCUGU [C29A U43C],0.465
15,GGGGGCCACAGCAGAAGCGUUCACGUCGAGGCCCCUGUCAGAGUCUGGUGAAUCUGCGAAUUCUGCUGU [C29A U43G],0.364
16,GGGGGCCACAGCAGAAGCGUUCACGUCGAGGCCCCUGUCAGAUGCUGGUGAAUCUGCGAAUUCUGCUGU [C29A U44G],0.521
17,GGGGGCCACAGCAGAAGCGUUCACGUCGAGGCCCCUGUCAGAUCCUGGUGAAUCUGCGAAUUCUGCUGU [C29A U44C],0.515
18,GGGGGCCACAGCAGAAGCGUUCACGUCGGGGCCCCUGUCAGAUUCUGGUGAAUCUGCGAAUUGUGCUGU [C29G C63G],0.183
19,GGGGGCCACAGCAGAAGCGUUCACGUCGGGGCCCCUGUCAGAUUCUGGUGAAUGUGCGAAUUCUGCUGU [C29G C54G],0.246
20,GGGGGCCACAGCAGAAGCGUUCACGUCGGGGCCCCUGUCAGAUUCUGGUGAAUUUGCGAAUUCUGCUGU [C29G C54U],0.545
21,GGGGGCCACAGCAGAAGCGUUCACGUCUCGGCCCCUGUCAGAUUCUGGUGAAUCGGCGAAUUCUGCUGU [G28U U55G],0.168
22,GGGGGCCACAGCAGAAGCGUUCACGUCGAGGCCCCUGUCAGAUUCUGGUGAAUCUGCGAAUGCUGCUGU [C29A U62G],0.269
23,GGGGGCCACAGCAGAAGCGUUCACGUCGAGGCCCCGGUCAGAUUCUGGUGAAUCUGCGAAUUCUGCUGU [C29A U36G],0.179
24,GGGGGCCACAGCAGAAGCGUUCACGUCUCGGCCCCUGUCAGAUUCUGGUGAAUCUGCGAAUCCUGCUGU [G28U U62C],0.127
25,GGGGGCCACAGCAGAAGCGUUCACGUCUCGGCCCCUGUCAGAUUCUGGUGAAUCUGCGAAAUCUGCUGU [G28U U61A],0.204
26,GGGGGCCACAGCAGAAGCGUUCACGUCGAGGCCCAUGUCAGAUUCUGGUGAAUCUGCGAAUUCUGCUGU [C29A C35A],0.157

row,Variant,self-cleavage
1,GGGGGCCACAGCAGAAGCGUUCACGUCGAGGCCCCUGUCAGAUUCUGGUGAAUCUACGAAUUCUGCUGU [C29A G56A],0.492
2,GGGGGCCACAGCAGAAGCGUUCACGUCGAGGCCCCUGUCAGAUUCUGGUGAAUCUUCGAAUUCUGCUGU [C29A G56U],0.367
3,GGGGGCCACAGCAGAAGCGUUCACGUCGAGGCCCCUGUCAGAUUCUGGUGAAUCUCCGAAUUCUGCUGU [C29A G56C],0.297
4,GGGGGCCACAGCAGAAGCGUUCACGUCGAGGCCCCUGUCAGAUUCUGGUGCAUCUGCGAAUUCUGCUGU [C29A A51C],0.534
5,GGGGGCCACAGCAGAAGCGUUCACGUCGAGGCCCCUGUCAGAUUCUGGAGAAUCUGCGAAUUCUGCUGU [C29A U49A],0.805
6,GGGGGCCACAGCAGAAGCGUUCACGUCGAGGCCCCUGUCAGAUUCUGGUGAAUCUGCGAAUUCUGCUAU [C29A G68A],0.914
7,GGGGGCCACAGCAGAAGCGUUCACGUCUCGGCCCCUGUCAGAUUCUGGUGAAUCUGCGAAUUCCGCUGU [G28U U64C],0.219
8,GGGGGCCACAGCAGAAGCGUUCACGUCGGGGCCCCUGUUAGAUUCUGGUGAAUCUGCGAAUUCUGCUGU [C29G C39U],0.251
9,GGGGGCCACAGCAGAAGCGUUCACGUCGGGGCCCCUGUGAGAUUCUGGUGAAUCUGCGAAUUCUGCUGU [C29G C39G],0.267
10,GGGGGCCACAGCAGAAGCGUUCACGUCGAGGCCCCUGUCAGAUUCUGGUGAAUCUGCGAAUUCUGCGGU [C29A U67G],0.79
11,GGGGGCCACAGCAGAAGCGUUCACGUCUCGGCCCCUGUCAGAAUCUGGUGAAUCUGCGAAUUCUGCUGU [G28U U43A],0.135
12,GGGGGCCACAGCAGAAGCGUUCACGUCUCGGCCCCUGUCAGAGUCUGGUGAAUCUGCGAAUUCUGCUGU [G28U U43G],0.0809
13,GGGGGCCACAGCAGAAGCGUUCACGUCGAGGCCCCUGUCAGAUUCUGGUCAAUCUGCGAAUUCUGCUGU [C29A G50C],0.71
14,GGGGGCCACAGCAGAAGCGUUCACGUCGAGGCCCCUAUCAGAUUCUGGUGAAUCUGCGAAUUCUGCUGU [C29A G37A],0.207
15,GGGGGCCACAGCAGAAGCGUUCACGUCGGGGCCCCUGUCAGCUUCUGGUGAAUCUGCGAAUUCUGCUGU [C29G A42C],0.347
16,GGGGGCCACAGCAGAAGCGUUCACGUCGAGGACCCUGUCAGAUUCUGGUGAAUCUGCGAAUUCUGCUGU [C29A C32A],0.297
17,GGGGGCCACAGCAGAAGCGUUCACGUCGAGGCGCCUGUCAGAUUCUGGUGAAUCUGCGAAUUCUGCUGU [C29A C33G],0.281
18,GGGGGCCACAGCAGAAGCGUUCACGUCGAGGCUCCUGUCAGAUUCUGGUGAAUCUGCGAAUUCUGCUGU [C29A C33U],0.594
19,GGGGGCCACAGCAGAAGCGUUCACGUCUCGGCCCCUGUCAGAUUCUGGUGAAUCUUCGAAUUCUGCUGU [G28U G56U],0.137
20,GGGGGCCACAGCAGAAGCGUUCACGUCGAGGCCCCUGUCAAAUUCUGGUGAAUCUGCGAAUUCUGCUGU [C29A G41A],0.215
21,GGGGGCCACAGCAGAAGCGUUCACGUCGAGGCCCCUGUCAUAUUCUGGUGAAUCUGCGAAUUCUGCUGU [C29A G41U],0.296
22,GGGGGCCACAGCAGAAGCGUUCACGUCGGGGCCCCUGUCAGAUUCUGGUGUAUCUGCGAAUUCUGCUGU [C29G A51U],0.439
23,GGGGGCCACAGCAGAAGCGUUCACGUCGGGGCCCCUGUCAGAUUCUGGUGCAUCUGCGAAUUCUGCUGU [C29G A51C],0.484
24,GGGGGCCACAGCAGAAGCGUUCACGUCGGGGCCCCUGUCAGAUUCUGGUGGAUCUGCGAAUUCUGCUGU [C29G A51G],0.541
25,GGGGGCCACAGCAGAAGCGUUCACGUCUCGGCCCCAGUCAGAUUCUGGUGAAUCUGCGAAUUCUGCUGU [G28U U36A],0.168
26,GGGGGCCACAGCAGAAGCGUUCACGUCUCGGCCCCGGUCAGAUUCUGGUGAAUCUGCGAAUUCUGCUGU [G28U U36G],0.106
